The source of these data is paper PMC2728434 (The EMBO Journal, 2009).

Where two headings read alike, the source gives them in different places.

Assay [1] addresses T1, Importin β (Kap95p), scImpβ-His6 (yeast, UniProt Q06142 1-861).
T1 sequence (looked up): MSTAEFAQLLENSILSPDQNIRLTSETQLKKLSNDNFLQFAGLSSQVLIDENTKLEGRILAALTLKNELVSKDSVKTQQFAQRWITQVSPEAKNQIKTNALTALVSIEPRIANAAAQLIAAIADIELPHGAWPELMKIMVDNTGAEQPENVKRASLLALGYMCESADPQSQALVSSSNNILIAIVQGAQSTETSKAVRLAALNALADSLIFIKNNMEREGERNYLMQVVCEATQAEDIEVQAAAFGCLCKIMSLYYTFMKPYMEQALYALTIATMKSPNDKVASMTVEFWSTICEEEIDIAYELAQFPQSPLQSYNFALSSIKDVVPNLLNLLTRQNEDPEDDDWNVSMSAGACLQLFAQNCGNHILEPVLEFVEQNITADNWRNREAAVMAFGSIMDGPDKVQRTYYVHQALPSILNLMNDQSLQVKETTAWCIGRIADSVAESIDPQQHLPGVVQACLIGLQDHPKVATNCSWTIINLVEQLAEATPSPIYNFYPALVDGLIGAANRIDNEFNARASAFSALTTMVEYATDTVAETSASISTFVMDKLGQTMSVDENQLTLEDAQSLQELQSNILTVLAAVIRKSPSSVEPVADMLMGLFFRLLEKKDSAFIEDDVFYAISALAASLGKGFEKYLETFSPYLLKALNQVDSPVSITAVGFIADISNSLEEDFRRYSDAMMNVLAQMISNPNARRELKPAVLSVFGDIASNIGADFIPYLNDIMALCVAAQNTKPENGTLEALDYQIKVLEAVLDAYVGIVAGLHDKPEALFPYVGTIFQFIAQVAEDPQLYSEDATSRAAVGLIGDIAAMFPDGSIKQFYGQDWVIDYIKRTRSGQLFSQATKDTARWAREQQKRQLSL
Nature of the assay: SEC. For orientation: Size exclusion chromatography separates by hydrodynamic size, large species first.

In assay [2] the target is T1, Importin β (Kap95p), scImpβ-His6. The experiment in a line: SEC. This is another data set of the same source.

B1: IBB-MBP-mEGFP (domain or fragment, Saccharomyces cerevisiae, UniProt Q02821 2-63, looked up)
chain: DNGTDSSTSKFVPEYRRTNFKNKGRFSADELRRRRDTQQVELRKAKRDEALAKRRNFIPPTD
Take B1: in assay [1], the binding result is listed as “binds”.

B2: IBB-ZsGreen (domain or fragment, Saccharomyces cerevisiae, UniProt Q02821 2-63, looked up)
chain: B1 chain
Consider B2, for which, in assay [2], the binding result is given as “binds”.
